# Data from the supplement of paper PMC10567573.
# B1: C10orf62 (parent)
# chain: TSECPSDKDKSPESHKAKNESWIK
# Variants of: B1
# Assay: protein stability index of a GFP-peptide fusion (GPS, HEK-293T) (PSI 1-6); higher = more stable
# Conditions: c terminus: a fixed tail appended
# 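Further: lentivirally expressed fusions sorted by FACS into six bins by GFP to DsRed ratio, PSI derived from sequencing read proportions per bin multiplied by bin number.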
row,Variant,protein stability index
1,TSECPSDKDKSPKSHKAKNESWIK [E13K],3.08
2,TSECPSDKGKSPESHKAKNESWIK [D9G],3.42
3,TSECPSDKAKSPESHKAKNESWIK [D9A],2.68
4,TSECPSDKVKSPESHKAKNESWIK [D9V],2.9
5,TSECPSDKYKSPESHKAKNESWIK [D9Y],2.64
6,TSECPSDKNKSPESHKAKNESWIK [D9N],2.94
7,TSECPSDKFKSPESHKAKNESWIK [D9F],2.16
8,TSECPSDKPKSPESHKAKNESWIK [D9P],3.39
9,TSECPSDKHKSPESHKAKNESWIK [D9H],3.18
10,TSECPSDKLKSPESHKAKNESWIK [D9L],2.54
11,TSECPSDKKKSPESHKAKNESWIK [D9K],2.25
12,TSECPSDKEKSPESHKAKNESWIK [D9E],3
13,TSECPSDKMKSPESHKAKNESWIK [D9M],3.28
14,TSECPSDKWKSPESHKAKNESWIK [D9W],2.98
15,TSECPSDKTKSPESHKAKNESWIK [D9T],3.34
16,TSECPSDKRKSPESHKAKNESWIK [D9R],2.62
17,TSECPSDKCKSPESHKAKNESWIK [D9C],2.46
18,TSECPSDKQKSPESHKAKNESWIK [D9Q],3.27
19,TSECPSDKSKSPESHKAKNESWIK [D9S],3.11
20,TSECPSAKDKSPESHKAKNESWIK [D7A],2.6
21,TSECPSHKDKSPESHKAKNESWIK [D7H],2.88
22,TSECPSYKDKSPESHKAKNESWIK [D7Y],2.85
23,TSECPSMKDKSPESHKAKNESWIK [D7M],2.82
24,TSECPSNKDKSPESHKAKNESWIK [D7N],3.11

row,Variant,protein stability index
1,TSECPSCKDKSPESHKAKNESWIK [D7C],3.2
2,TSECPSEKDKSPESHKAKNESWIK [D7E],2.57
3,TSECPSLKDKSPESHKAKNESWIK [D7L],2.81
4,TSECPSPKDKSPESHKAKNESWIK [D7P],3.6
5,TSECPSWKDKSPESHKAKNESWIK [D7W],2.58
6,TSECPSGKDKSPESHKAKNESWIK [D7G],3.38
7,TSECPSFKDKSPESHKAKNESWIK [D7F],2.84
8,TSECPSRKDKSPESHKAKNESWIK [D7R],2.35
9,TSECPSQKDKSPESHKAKNESWIK [D7Q],3.2
10,TSECPSVKDKSPESHKAKNESWIK [D7V],3.52
11,TSECPSTKDKSPESHKAKNESWIK [D7T],3.14
12,TSECPSKKDKSPESHKAKNESWIK [D7K],3.55
13,TSECPSIKDKSPESHKAKNESWIK [D7I],2.3
14,TSECNSDKDKSPESHKAKNESWIK [P5N],3.94
15,TSECTSDKDKSPESHKAKNESWIK [P5T],2.9
16,TSECDSDKDKSPESHKAKNESWIK [P5D],3.84
17,TSECFSDKDKSPESHKAKNESWIK [P5F],3.28
18,TSECYSDKDKSPESHKAKNESWIK [P5Y],3.59
19,TSECVSDKDKSPESHKAKNESWIK [P5V],4.14
20,TSECSSDKDKSPESHKAKNESWIK [P5S],3
21,TSECMSDKDKSPESHKAKNESWIK [P5M],3.08
22,TSECESDKDKSPESHKAKNESWIK [P5E],3.84
23,TSECRSDKDKSPESHKAKNESWIK [P5R],3.45
24,TSECASDKDKSPESHKAKNESWIK [P5A],3.72

row,Variant,protein stability index
1,TSECKSDKDKSPESHKAKNESWIK [P5K],3.24
2,TSECISDKDKSPESHKAKNESWIK [P5I],3.86
3,TSECCSDKDKSPESHKAKNESWIK [P5C],2.8
4,TSECLSDKDKSPESHKAKNESWIK [P5L],3.33
5,TSECQSDKDKSPESHKAKNESWIK [P5Q],3.32
6,TSECGSDKDKSPESHKAKNESWIK [P5G],3.41
7,TSECHSDKDKSPESHKAKNESWIK [P5H],3.75
8,TSECWSDKDKSPESHKAKNESWIK [P5W],3.04
9,TSECPSDKDKSVESHKAKNESWIK [P12V],2.4
10,TSECPSDKDKSFESHKAKNESWIK [P12F],2.44
11,TSECPSDKDKSCESHKAKNESWIK [P12C],3.62
12,TSECPSDKDKSNESHKAKNESWIK [P12N],3.3
13,TSECPSDKDKSDESHKAKNESWIK [P12D],3.83
14,TSECPSDKDKSYESHKAKNESWIK [P12Y],2.74
15,TSECPSDKDKSEESHKAKNESWIK [P12E],3.15
16,TSECPSDKDKSTESHKAKNESWIK [P12T],3.54
17,TSECPSDKDKSMESHKAKNESWIK [P12M],3.19
18,TSECPSDKDKSWESHKAKNESWIK [P12W],2.37
19,TSECPSDKDKSRESHKAKNESWIK [P12R],1.66
20,TSECPSDKDKSHESHKAKNESWIK [P12H],3.44
21,TSECPSDKDKSAESHKAKNESWIK [P12A],2.87
22,TSECPSDKDKSIESHKAKNESWIK [P12I],3.21
23,TSECPSDKDKSGESHKAKNESWIK [P12G],3.48
24,TSECPSDKDKSLESHKAKNESWIK [P12L],2.77

row,Variant,protein stability index
1,TSECPSDKDKSSESHKAKNESWIK [P12S],2.54
2,TSECPSDKDKSKESHKAKNESWIK [P12K],2.86
3,TSECPSDKDKSQESHKAKNESWIK [P12Q],3.79
4,TSECPRDKDKSPESHKAKNESWIK [S6R],2.75
5,TSECPWDKDKSPESHKAKNESWIK [S6W],2.71
6,TSECPMDKDKSPESHKAKNESWIK [S6M],2.94
7,TSECPHDKDKSPESHKAKNESWIK [S6H],3.56
8,TSECPPDKDKSPESHKAKNESWIK [S6P],3.37
9,TSECPIDKDKSPESHKAKNESWIK [S6I],3.35
10,TSECPVDKDKSPESHKAKNESWIK [S6V],3.27
11,TSECPQDKDKSPESHKAKNESWIK [S6Q],3.75
12,TSECPCDKDKSPESHKAKNESWIK [S6C],3.17
13,TSECPFDKDKSPESHKAKNESWIK [S6F],3.34
14,TSECPADKDKSPESHKAKNESWIK [S6A],4.02
15,TSECPNDKDKSPESHKAKNESWIK [S6N],3.76
16,TSECPKDKDKSPESHKAKNESWIK [S6K],2.95
17,TSECPGDKDKSPESHKAKNESWIK [S6G],3.62
18,TSECPTDKDKSPESHKAKNESWIK [S6T],2.92
19,TSECPDDKDKSPESHKAKNESWIK [S6D],3.51
20,TSECPYDKDKSPESHKAKNESWIK [S6Y],2.82
21,TSECPLDKDKSPESHKAKNESWIK [S6L],3.82
22,TSECPEDKDKSPESHKAKNESWIK [S6E],3.71
